B1: KLC2^TPR (residues 196–480 of mouse kinesin-1 light chain 2 isoform 1) (domain or fragment, UniProt O88448 196-480, looked up)
chain: RLRTLHNLVIQYASQGRYEVAVPLCKQALEDLEKTSGHDHPDVATMLNILALVYRDQNKYKDAAHLLNDALAIREKTLGKDHPAVAATLNNLAVLYGKRGKYKEAEPLCKRALEIREKVLGKFHPDVAKQLSNLALLCQNQGKAEEVEYYYRRALEIYATRLGPDDPNVAKTKNNLASCYLKQGKYQDAETLYKEILTRAHEKEFGSVNGENKPIWMHAEEREESKDKRRDRRPMEYGSWYKACKVDSPTVNTTLRTLGALYRPEGKLEAAHTLEDCASRSRKQG
B2: Nup358-KLC2-fusion protein (other, human | mouse, UniProt P49792 2147-2240, looked up)
chain: LDIPLQTPHKLVDTGRAAKLIQRAEEMKSGLKDFKTFLTNDQTKVTEEENKGSGTGAAGASDTTIKPNPENTGPTLEWDNYDLREDALDDSVSSRLRTLHNLVIQYASQGRYEVAVPLCKQALEDLEKTSGHDHPDVATMLNILALVYRDQNKYKDAAHLLNDALAIREKTLGKDHPAVAATLNNLAVLYGKRGKYKEAEPLCKRALEIREKVLGKFHPDVAKQLSNLALLCQNQGKAEEVEYYYRRALEIYATRLGPDDPNVAKTKNNLASCYLKQGKYQDAETLYKEILTRAHEKEFGSVNGENKPIWMHAEEREESKDKRRDRRPMEYGSWYKACKVDSPTVNTTLRTLGALYRPEGKLEAAHTLEDCASRSRKQG

Assays:
[1] = molecular target: Nup358-min (residues 2147–2240 of human Nup358) (human, UniProt P49792 2147-2240); test: SEC-MALS
[2] = molecular target: the molecule itself; test: SEC-MALS

Binder | stoichiometry N [1] | stoichiometry N [2]
B1 | 1 | –
B2 | – | 2

Reference: publication PMC7243271 (Biochemistry, 2019)
